According to publication doi:10.1101/2021.10.29.464531:

Target: tick-borne encephalitis virus capsid protein (tick-borne encephalitis virus, strain Kuutsalo-14)
Assay: cross-linking

tick-borne encephalitis virus capsid protein (natural protein)
stoichiometry N: 2
